Results from article PMC11018607, “A widely conserved protein Rof inhibits transcription termination factor Rho and promotes Salmonella virulence program” (Nature Communications, 2024).

Target: T1, Transcription termination factor Rho (E. coli) (E. coli, UniProt P0AG30 1-419)
T1 construct: Transcription termination factor Rho, E. coli, expressed from pET24b-rho; no tag is mentioned; In the cryo-EM map density was absent for residues 280-284; also called EcRho; Rho hexamer; source: E. coli BL21(DE3) carrying pET24b-rho, purified (HiTrap Q, heparin, Superdex 200)
T1 sequence (P0AG30 whole entry, the tested form may be a part): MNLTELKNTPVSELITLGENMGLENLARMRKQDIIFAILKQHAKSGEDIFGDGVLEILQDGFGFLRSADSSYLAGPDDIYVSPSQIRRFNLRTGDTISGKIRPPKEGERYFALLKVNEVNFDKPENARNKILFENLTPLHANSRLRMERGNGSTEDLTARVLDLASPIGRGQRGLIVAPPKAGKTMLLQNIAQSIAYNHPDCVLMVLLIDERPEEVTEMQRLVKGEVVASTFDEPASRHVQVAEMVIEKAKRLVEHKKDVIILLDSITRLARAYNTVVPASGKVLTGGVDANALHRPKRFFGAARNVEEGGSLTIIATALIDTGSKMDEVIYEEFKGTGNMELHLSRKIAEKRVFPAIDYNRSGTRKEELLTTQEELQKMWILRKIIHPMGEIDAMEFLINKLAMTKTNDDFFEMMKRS
Experiment: SEC; gel filtration of the complex assembled by mixing purified Rho and Rof at a ratio of 1:1
Details: both partners purified

B1: Rof (Rho-off, YaeO), E. coli (natural protein)
chain: MNDTYQPINCDDYDNLELACQHHLMLTLELKDGEKLQAKASDLVSRKNVEYLVVEAAGETRELRLDKITSFSHPEIGTVVVSES
notes: Protein Rof (YaeO), E. coli, expressed from pET22b-rof; In the cryo-EM map density was absent for Rof residues 1-5; No removal of the tag is described; also called EcRof; source: E. coli BL21(DE3) transformed with pET22b-rof, purified (Ni-NTA, Superdex 200)
B1: binds.
